Usually stoichiometry N stands for the number of molecules, sites or subunits per partner or assembly.

This note sets out measurements from PMC6663034, “ACAP1 assembles into an unusual protein lattice for membrane deformation through multiple stages” (PLoS Computational Biology, 2019).

The series deals with the molecule itself. Put plainly: cryo-EM structure; cryo-electron tomography and sub-tomogram averaging of the ACAP1^BAR-PH coat on non-tubulated (spherical) portions of liposomes; average of 233 coat particles; dimer model PDB 4CKG fitted into the density; dimers to tetramer on membrane.

B1: ACAP1^BAR-PH (a.a. 1-377) (domain or fragment, UniProt Q15027 1-377, looked up)
chain: MTVKLDFEECLKDSPRFRASIELVEAEVSELETRLEKLLKLGTGLLESGRHYLAASRAFVVGICDLARLGPPEPMMAECLEKFTVSLNHKLDSHAELLDATQHTLQQQIQTLVKEGLRGFREARRDFWRGAESLEAALTHNAEVPRRRAQEAEEAGAALRTARAGYRGRALDYALQINVIEDKRKFDIMEFVLRLVEAQATHFQQGHEELSRLSQYRKELGAQLHQLVLNSAREKRDMEQRHVLLKQKELGGEEPEPSLREGPGGLVMEGHLFKRASNAFKTWSRRWFTIQSNQLVYQKKYKDPVTVVVDDLRLCTVKLCPDSERRFCFEVVSTSKSCLLQADSERLLQLWVSAVQSSIASAFSQARLDDSPRGPGQ
notes: ACAP1 (Arfgap with Coil-coil, Ankryin repeat, PH domain 1), BAR-PH tandem, a.a; 1-377; also called BAR-PH tandem of ACAP1; wild-type ACAP1^BAR-PH; source: E. coli BL21 (DE3), purified (glutathione-Sepharose 4B, GST removed with Precision Protease)
Take B1: the “stoichiometry N” value is 4.
